From patent US20260210939A1, “MODIFIED OLFACTORY RECEPTORS” (GIVAUDAN SA, priority 2022, published 2026)

How the values were obtained:
OR5B12 = target: T1, OR5B12 (Homo sapiens, UniProt Q96R08, C141R); assay: CRE-luciferase assay, HEK293T cells expressing OR5B12 (wild-type / modified C-terminus); format: cell-based; conditions: for Fold-improvement potency / Fold-improvement threshold: changed C-term. vs wild-type; for % of the activation by the optimized sequence RNKEVKDALKRLLKRKCC: OR5B12 variant
T1 construct: Improved functional expression of modified OR-genes containing the truncated, optimized C-terminus; expressed in transfected cells; host or cells: HEK293T stably expressing human RTP1S(V227I) and RTP2(L220R)
T1 sequence (Q96R08 with tags, fused parts or gaps C141R): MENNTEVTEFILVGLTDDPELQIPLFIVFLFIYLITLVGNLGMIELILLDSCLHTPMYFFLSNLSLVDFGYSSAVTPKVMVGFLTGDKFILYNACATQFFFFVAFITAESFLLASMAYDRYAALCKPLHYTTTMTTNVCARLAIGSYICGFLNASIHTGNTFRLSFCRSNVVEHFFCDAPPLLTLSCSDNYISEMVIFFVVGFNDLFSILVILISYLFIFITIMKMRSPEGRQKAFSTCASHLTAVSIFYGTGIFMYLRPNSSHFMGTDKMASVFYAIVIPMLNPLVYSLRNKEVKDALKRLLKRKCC

OR7C1 = target: T2, OR7C1 (Homo sapiens, UniProt O76099, D296E/G302K/M297V/R299D/T295K/V126I); assay: CRE-luciferase assay, HEK293T cells expressing OR7C1 (wild-type / modified C-terminus); format: cell-based; conditions: OR7C1 variant, 1 μM Ambermax
T2 construct: Improved functional expression of modified OR-genes containing the truncated, optimized C-terminus; expressed in transfected cells; host or cells: HEK293T stably expressing human RTP1S(V227I) and RTP2(L220R)
T2 sequence (O76099 with tags, fused parts or gaps V126I/T295K/D296E/M297V/R299D/G302K): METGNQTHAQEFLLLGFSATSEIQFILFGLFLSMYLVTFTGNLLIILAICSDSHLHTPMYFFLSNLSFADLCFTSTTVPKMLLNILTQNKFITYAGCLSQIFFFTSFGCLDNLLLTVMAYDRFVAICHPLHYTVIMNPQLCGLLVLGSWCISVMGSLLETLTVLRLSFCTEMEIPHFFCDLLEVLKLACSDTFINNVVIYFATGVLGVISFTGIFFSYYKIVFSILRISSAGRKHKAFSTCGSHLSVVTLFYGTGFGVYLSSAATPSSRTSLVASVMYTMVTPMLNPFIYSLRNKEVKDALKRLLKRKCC
Excerpt: To test for possible variants of the sequence […]CC (SEQ ID NO: 86) leading to similar improved functional expression, different point mutations were introduced into the first 16 amino acids of this sequence (corresponding to […], SEQ ID NO: 10) and the variants were fused after the TM7 with OR7C1. […] The test concentrations were selected to fall into the range of partial activity of the wild-type sequence.

Compound | % of the activation by the optimized sequence RNKEVKDALKRLLKRKCC (OR5B12; 31 μM Hedione HC) [%] | % of the activation by the optimized sequence RNKEVKDALKRLLKRKCC (OR5B12; 62.5 μM Hedione HC) [%] | % of the activation by the optimized sequence RNKEVKDALKRLLKRKCC (OR7C1) [%] | further results
CCCCCC1C(=O)CCC1CC(=O)OC (racemic) [Hedione HC, reference compound] |  |  |  | Comments on efficacy (OR5B12): 4-fold lower; Detection threshold; concentration for 2-fold induction (OR5B12; changed C-term. SEQ ID NO: 86): 8.8 µM; EC50 (OR5B12; changed C-term. SEQ ID NO: 86): 18.3 µM; Fold-improvement potency (OR5B12): 3.8; Fold-improvement threshold (OR5B12): 11; Detection threshold; concentration for 2-fold induction (OR5B12; wild-type): 96 µM; EC50 (OR5B12; wild-type): 69 µM
CCCCCC1C(=O)CCC1CC(=O)OC (stereo not shown) [Hedione, reference compound] |  |  |  | Comments on efficacy (OR5B12): type only 1.75-; Detection threshold; concentration for 2-fold induction (OR5B12; changed C-term. SEQ ID NO: 86): 29 µM; EC50 (OR5B12; changed C-term. SEQ ID NO: 86): 58.3 µM; Fold-improvement potency (OR5B12): >5; Fold-improvement threshold (OR5B12): >9; Detection threshold; concentration for 2-fold induction (OR5B12; wild-type): (>>250) μM; EC50 (OR5B12; wild-type): > 250 µM
SEQ ID NO: 134 (RNKEVKDALKRLLKRKCCC; source 1..19: note = C-terminal domain sequence) | 168.91 | 121.37 |  | 
SEQ ID NO: 135 (RNKEVKDALKRLLKRKCCF; source 1..19: note = C-terminal domain sequence) | 207.32 | 127.22 |  | 
SEQ ID NO: 136 (RNKEVKDALKRLLKRKCCL; source 1..19: note = C-terminal domain sequence) | 533.84 | 189.64 |  | 
SEQ ID NO: 137 (RNKEVKDALKRLLKRKCCM; source 1..19: note = C-terminal domain sequence) | 177.47 | 182.76 |  | 
SEQ ID NO: 138 (RNKEVKDALKRLLKRKCCS; source 1..19: note = C-terminal domain sequence) | 176.99 | 75.63 |  | 
SEQ ID NO: 139 (RNKEVKDALKRLLKRKCCP; source 1..19: note = C-terminal domain sequence) | 98.68 | 98.17 |  | 
SEQ ID NO: 140 (RNKEVKDALKRLLKRKCCA; source 1..19: note = C-terminal domain sequence) | 230.04 | 143.71 |  | 
SEQ ID NO: 141 (RNKEVKDALKRLLKRKCCY; source 1..19: note = C-terminal domain sequence) | 298.48 | 274.09 |  | 
SEQ ID NO: 142 (RNKEVKDALKRLLKRKCCH; source 1..19: note = C-terminal domain sequence) | 142.62 | 129.19 |  | 
SEQ ID NO: 143 (RNKEVKDALKRLLKRKCCN; source 1..19: note = C-terminal domain sequence) | 137.13 | 91.94 |  | 
SEQ ID NO: 144 (RNKEVKDALKRLLKRKCCD; source 1..19: note = C-terminal domain sequence) | 86.54 | 56.54 |  | 
SEQ ID NO: 145 (RNKEVKDALKRLLKRKCCK; source 1..19: note = C-terminal domain sequence) | 280.71 | 237.30 |  | 
SEQ ID NO: 146 (RNKEVKDALKRLLKRKCCR; source 1..19: note = C-terminal domain sequence) | 619.88 | 248.52 |  | 
SEQ ID NO: 147 (RNKEVKDALKRLLKRKCCG; source 1..19: note = C-terminal domain sequence) | 394.57 | 300.08 |  | 
SEQ ID NO: 148: printed for RNKEVKDALKRLLKRKCRR in Table 6 | 181.2 | 189.0 |  | 
SEQ ID NO: 188 (RQKEVKDALKRLLKRKCC; source 1..18: note = C-terminal domain sequence) |  |  | 28.5 | 
SEQ ID NO: 189 (RNHEVKDALKRLLKRKCC; source 1..18: note = C-terminal domain sequence) |  |  | 16.2 | 
SEQ ID NO: 190 (RNKEVKDGLKRLLKRKCC; source 1..18: note = C-terminal domain sequence) |  |  | 4.6 | 
SEQ ID NO: 191 (RNKEVKDVLKRLLKRKCC; source 1..18: note = C-terminal domain sequence) |  |  | 3.9 | 
SEQ ID NO: 192 (RNKEVKDAMKRLLKRKCC; source 1..18: note = C-terminal domain sequence) |  |  | 27.0 | 
SEQ ID NO: 193 (RNKEVKDALKHLLKRKCC; source 1..18: note = C-terminal domain sequence) |  |  | 12.3 | 

Compound | % of the activation by the optimized sequence RNKEVKDALKRLLKRKCC (OR5B12; 31 μM Hedione HC) [%] | % of the activation by the optimized sequence RNKEVKDALKRLLKRKCC (OR5B12; 62.5 μM Hedione HC) [%] | % of the activation by the optimized sequence RNKEVKDALKRLLKRKCC (OR7C1) [%] | further results
SEQ ID NO: 194 (RNKEVKDALKRVVKRKCC; source 1..18: note = C-terminal domain sequence) |  |  | 30.4 | 
SEQ ID NO: 195 (RNKEVKDALKRLRKRKCC; source 1..18: note = C-terminal domain sequence) |  |  | 14.1 | 
SEQ ID NO: 196 (RNKEVKDALKRLKKRKCC; source 1..18: note = C-terminal domain sequence) |  |  | 5.7 | 
SEQ ID NO: 197 (RNKEVKDALKRLLERKCC; source 1..18: note = C-terminal domain sequence) |  |  | 5.6 | 
SEQ ID NO: 321 (RNKEVKCALKRLLKRKCC; source 1..18: note = C-terminal domain sequence) |  |  | 46.0 | 
SEQ ID NO: 322 (RNKEVKFALKRLLKRKCC; source 1..18: note = C-terminal domain sequence) |  |  | 41.1 | 
SEQ ID NO: 323 (RNKEVKHALKRLLKRKCC; source 1..18: note = C-terminal domain sequence) |  |  | 65.6 | 
SEQ ID NO: 324 (RNKEVKIALKRLLKRKCC; source 1..18: note = C-terminal domain sequence) |  |  | 81.0 | 
SEQ ID NO: 325 (RNKEVKLALKRLLKRKCC; source 1..18: note = C-terminal domain sequence) |  |  | 108.0 | 
SEQ ID NO: 326 (RNKEVKMALKRLLKRKCC; source 1..18: note = C-terminal domain sequence) |  |  | 107.6 | 
SEQ ID NO: 327 (RNKEVKPALKRLLKRKCC; source 1..18: note = C-terminal domain sequence) |  |  | −3.7 | 
SEQ ID NO: 328 (RNKEVKSALKRLLKRKCC; source 1..18: note = C-terminal domain sequence) |  |  | 99.1 | 
SEQ ID NO: 329 (RNKEVKTALKRLLKRKCC; source 1..18: note = C-terminal domain sequence) |  |  | 129.9 | 
SEQ ID NO: 330 (RNKEVKWALKRLLKRKCC; source 1..18: note = C-terminal domain sequence) |  |  | 17.4 | 
SEQ ID NO: 331 (RNKEVKYALKRLLKRKCC; source 1..18: note = C-terminal domain sequence) |  |  | 59.4 | 
Ser Gln |  |  | 1.0 | 
Ser Ile |  |  | 225.3 | 
Tyr Arg |  |  | 127.8 | 
Tyr Leu |  |  | 95.4 | 
Tyr Pro |  |  | 221.7 | 
Tyr Tyr |  |  | 108.3 | 
Val Met |  |  | 1.3 | 
Val Ser |  |  | 4.3 | 
